Measurements published in US7919462B2, “Inhibitors of human plasmin derived from the Kunitz domains” (Dyax Corp., priority 1994, dated 2011).
Several values for one entry are separate records, joined by “and”; a condition that tells them apart may be missing. Identical values can stand only once. Like-named read-outs stand apart in the source and are kept apart here. Each block holds one substance with its values, some of them ahead of it. Bridges are numbered along the chain shown (N, C = ends). Where no end group is shown, it is not given here.

Experiments:
[1] = molecular target: T1, plasmin (Homo sapiens, UniProt P00747); assay: Inhibition of plasmin hydrolysis of succinyl-Ala-Phe-Lys-(F3Ac)AMC, tight-binding fit (Ki used as KD); type: biochemical
T1 sequence (P00747 581-810 limits assumed): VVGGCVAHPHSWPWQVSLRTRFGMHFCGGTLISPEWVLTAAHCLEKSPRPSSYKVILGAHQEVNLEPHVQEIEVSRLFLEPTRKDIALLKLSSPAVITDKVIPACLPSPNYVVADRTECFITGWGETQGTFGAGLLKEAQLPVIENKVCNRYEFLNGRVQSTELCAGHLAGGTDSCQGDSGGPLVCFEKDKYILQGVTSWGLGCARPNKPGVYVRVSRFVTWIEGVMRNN
T1 sequence (P00747 97-580 partner limits assumed): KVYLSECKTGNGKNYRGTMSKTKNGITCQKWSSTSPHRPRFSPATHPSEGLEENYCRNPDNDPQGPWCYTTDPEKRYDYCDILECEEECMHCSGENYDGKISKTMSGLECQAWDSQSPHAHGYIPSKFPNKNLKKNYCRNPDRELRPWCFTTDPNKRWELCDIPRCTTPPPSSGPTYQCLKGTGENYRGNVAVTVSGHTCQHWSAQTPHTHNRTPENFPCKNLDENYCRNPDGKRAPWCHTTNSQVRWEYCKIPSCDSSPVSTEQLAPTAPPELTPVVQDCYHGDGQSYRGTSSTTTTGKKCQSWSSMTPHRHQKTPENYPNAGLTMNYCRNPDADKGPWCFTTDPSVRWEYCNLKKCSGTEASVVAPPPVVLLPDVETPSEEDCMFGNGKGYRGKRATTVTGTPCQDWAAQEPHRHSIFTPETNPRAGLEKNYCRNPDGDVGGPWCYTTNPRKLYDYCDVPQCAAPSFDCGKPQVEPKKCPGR
Description: A second appropriate method of measuring KD is to measure the inhibitory activity against the enzyme. […] Here, we use the measured Ki as a direct measure of KD.
Inhibition of hydrolysis of succinyl-Ala-Phe-Lys-(F3Ac)AMC (a methyl coumarin) (Sigma Chemical, St. Louis, Mo.) by plasmin at 2.5×10^−8 M with varying amount of inhibitor were fit to the standard form for a tight-binding […] by least-squares.

[2] = molecular target: T1, plasmin; assay: Binding of display phage (KuDom on M13 gIIIp) to plasmin beads; details: in words
[3] = molecular target: T1, plasmin; details: cited from earlier work; for Kd: Table 4, plasmin, read-out: Affinity KD

Substance: MHSFCAFKADSGPCRARFDRWFFNIFTRQCTRFPYGGCGGNQNRFESLEECKKMCTRD (disulfide 5-55, 14-38, 30-51) [SPI54]
Ki ([1]; Ki for plasmin, 150 mM salt): > 4 nM

Ki ([1]; 150 mM salt, read-out: Ki for plasmin): ~2 nM
Kd ([1]; Table 4, plasmin, read-out: Affinity KD): 2 nM
potency class for plasmin below the rank order of Table 8 ([1]; class words wrapped over r53-r54: Highly Superior / very potent / potent, order SPI11<BPTI<SPI23=SPI51<SPI47<QS4<SPI22<SPI54<SPI43): potent
Substance: QS4: LACI-K1 derivative that binds human plasmin, SEQ ID NO. 4 (MHSFCAFKADDGPCKARFERFFFNIFTRQCEQFYYGGCDGNQNRFESLEECKKMCTRD; Synthetically generated peptide)

Substance: MHSFCAFKAETGPCRGKFDRWFFNIFTRQCESFHYGGCKGNQNRFESLEECKKMCTRD (disulfide 5-55, 14-38, 30-51) [SPI43]
Ki ([1]; Ki for plasmin): > 4 nM

Substance: MHSFCAFKADGGPCKGKFPRFFFNIFTRQCEEFIYGGCEGNQNRFESLEECKKMCTRD (disulfide 5-55, 14-38, 30-51) [SPI22]
Kd ([1]; Affinity KD): > 2 nM

binding of clonally pure phage compared to BPTI display phage [2]: superior to BPTI phage
Substance: SPI08: LACI-K1 derivative selected for plasmin binding, SEQ ID NO. 42 (MHSFCAFKADGGPCRARFERFFFNIFTRQCEEFIYGGCEGNQNRFESLEECKKMCTRD; Synthetically generated peptide)

Substance: MHSFCAFKAETGPCRARFDRWFFNIFTRQCEEFIYGGCEGNQNRFESLEECKKMCTRD (disulfide 5-55, 14-38, 30-51) [SPI11]
Kd ([1]; Affinity KD): 0.088 nM
Ki ([1]; Ki for plasmin): 0.088 nM and ~0.088 nM
Kd ([1]; affinity for plasmin): < 0.1 nM

Substance: Human APP-I: human Kunitz domain APP-I, SEQ ID NO. 39 (VREVCSEQAETGPCRAMISRWYFDVTEGKCAPFFYGGCGGNRNNFDTEEYCMAVCGSA; listed as Homo sapiens)
Ki ([3]; AUER88, SCHN86, DENN94a): 225 nM
Kd ([3]; KIDO88): 0.075 nM
Kd ([3]; literature values (APP-I: DENN94a)): 225 nM

binding of clonally pure phage compared to BPTI display phage [2]: superior to BPTI phage
Substance: SPI15: LACI-K1 derivative selected for plasmin binding, SEQ ID NO. 41 (Table 6: 90) (MHSFCAFKAESGPCRARFDRWFFNIFTRQCEEFIYGGCEGNQNRFESLEECKKMCTRD; Synthetically generated peptide)

Substance: MHSFCAFKADDGPCKARFERFFFNIFTRQCEQFTYGGCGGNQNRFESLEECKKMCTRD (disulfide 5-55, 14-38, 30-51) [NS4]
Ki ([1]; Ki for plasmin, 150 mM salt): ~2 nM
